Experimental data: patent US20090111754

Assays:
p65-P6 = biological target: T1, p65-P6
T1 chain: NGLLSGDEDFSS

p65-P1 = biological target: T2, p65-P1
T2 chain: QLRRPSDRELSE

p65-P8 = biological target: T3, p65-P8
T3 chain: NGLLSGDEDFSA

p65-P7 = biological target: T4, p65-P7
T4 chain: NGLLAGDEDFSS

B1: IKK complex immunoprecipitated from whole-cell extracts of TNF-treated cells (protein)
chain 1: MERPPGLRPGAGGPWEMRERLGTGGFGNVCLYQHRELDLKIAIKSCRLELSTKNRERWCHEIQIMKKLNHANVVKACDVPEELNILIHDVPLLAMEYCSGGDLRKLLNKPENCCGLKESQILSLLSDIGSGIRYLHENKIIHRDLKPENIVLQDVGGKIIHKIIDLGYAKDVDQGSLCTSFVGTLQYLAPELFENKPYTATVDYWSFGTMVFECIAGYRPFLHHLQPFTWHEKIKKKDPKCIFACEEMSGEVRFSSHLPQPNSLCSLVVEPMENWLQLMLNWDPQQRGGPVDLTLKQPRCFVLMDHILNLKIVHILNMTSAKIISFLLPPDESLHSLQSRIERETGINTGSQELLSETGISLDPRKPASQCVLDGVRGCDSYMVYLFDKSKTVYEGPFASRSLSDCVNYIVQDSKIQLPIIQLRKVWAEAVHYVSGLKEDYSRLFQGQRAAMLSLLRYNANLTKMKNTLISASQQLKAKLEFFHKSIQLDLERYSEQMTYGISSEKMLKAWKEMEEKAIHYAEVGVIGYLEDQIMSLHAEIMELQKSPYGRRQGDLMESLEQRAIDLYKQLKHRPSDHSYSDSTEMVKIIVHTVQSQDRVLKELFGHLSKLLGCKQKIIDLLPKVEVALSNIKEADNTVMFMQGKRQKEIWHLLKIACTQSSARSLVGSSLEGAVTPQTSAWLPPTSAEHDHSLSCVVTPQDGETSAQMIEENLNCLGHLSTIIHEANEEQGNSMMNLDWSWLTE
chain 2: MSWSPSLTTQTCGAWEMKERLGTGGFGNVIRWHNQETGEQIAIKQCRQELSPRNRERWCLEIQIMRRLTHPNVVAARDVPEGMQNLAPNDLPLLAMEYCQGGDLRKYLNQFENCCGLREGAILTLLSDIASALRYLHENRIIHRDLKPENIVLQQGEQRLIHKIIDLGYAKELDQGSLCTSFVGTLQYLAPELLEQQKYTVTVDYWSFGTLAFECITGFRPFLPNWQPVQWHSKVRQKSEVDIVVSEDLNGTVKFSSSLPYPNNLNSVLAERLEKWLQLMLMWHPRQRGTDPTYGPNGCFKALDDILNLKLVHILNMVTGTIHTYPVTEDESLQSLKARIQQDTGIPEEDQELLQEAGLALIPDKPATQCISDGKLNEGHTLDMDLVFLFDNSKITYETQISPRPQPESVSCILQEPKRNLAFFQLRKVWGQVWHSIQTLKEDCNRLQQGQRAAMMNLLRNNSCLSKMKNSMASMSQQLKAKLDFFKTSIQIDLEKYSEQTEFGITSDKLLLAWREMEQAVELCGRENEVKLLVERMMALQTDIVDLQRSPMGRKQGGTLDDLEEQARELYRRLREKPRDQRTEGDSQEMVRLLLQAIQSFEKKVRVIYTQLSKTVVCKQKALELLPKVEEVVSLMNEDEKTVVRLQEKRQKELWNLLKIACSKVRGPVSGSPDSMNASRLSQPGQLMSQPSTASNSLPEPAKKSEELVAEAHNLCTLLENAIQDTVREQDQSFTALDWSWLQTEEEEHSCLEQAS
phosphorylation of peptide substrate in immunocomplex kinase assay (p65-P6): precipitated IKK complex can phosphorylate p65-P1 and p65-p6 | phosphorylation of peptide substrate in immunocomplex kinase assay (p65-P1): precipitated IKK complex can phosphorylate p65-P1 and p65-p6 | phosphorylation of peptide substrate in immunocomplex kinase assay (p65-P2): p65-peptides in which Ser 276, 529 or 536 were mutated into alanine did not undergo phosphorylation by the IKK complex | phosphorylation of peptide substrate in immunocomplex kinase assay (p65-P8): p65-peptides in which Ser 276, 529 or 536 were mutated into alanine did not undergo phosphorylation by the IKK complex | phosphorylation of peptide substrate in immunocomplex kinase assay (p65-P7): p65-peptides in which Ser 276, 529 or 536 were mutated into alanine did not undergo phosphorylation by the IKK complex
